In the domain aggregation screens of Martell et al. (2025):

Experiment: soluble fraction after stress (log2 fold change); higher = more stays soluble; pooled small domains, quantitative proteomics
Conditions: stress: 75 degC
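Note: 20 min heating vs room temperature control held 20 min.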

Sequence	soluble fraction (log2)
HMLTKSVLGNQIKVLRLEKGLSQEEFGAPVDLSRSAVSQIESGQMYPSLESIGKIVKYYSTSWDNLVG	-0.846
HMSTLSIHIPDKFAGQRLDQALAELYSQFSRSRLQQWLNDGELLVDGKSVKANKKVLGGEFIQILK	-1.24
HMTKIAFPQMLNKYRLQKNLTMEQLAEEVGKTKSTISKWEAGTRSPKIYEIEEIAKYFGVEPQTMMF	-0.107
HMDSPRITMDQLRIGLYVYLDLTWFQHPFAFSHFKINSEDQIKTILGLGLKSVRYDPALSDPV	-2.91
HMELEENTERVLNILIENDIISENDIAEKLEVKINGARKALYKLKEVGFVEYTKERDEEKKWWYIYFWKLN	-0.132
HMEIPMRDKLKTYIDYLFAGAPQTAATAETKAEILQNTLDKYDDLIAEGKTPEAAYSLAVSGIGDLGDF	-0.179
HMEYRVRDKMTDILELLTEHRGRIALRDAFPTGTREELLAAFLALLELTKMQTVIVYQDRLYDDIQIVMK	-0.354
HMKMPNGYGSVYKLSGNRRKPWAARVTDGWVNDTKTKKSKQKYKFIGFYETRKEALLALADYNANP	-2.05
HMSARKVTVALHTRDHADRLRRLLKHEGVSADLVAARLSHKLTDHPIEVRVNEDDIPAVLRIIENIEIF	-1.61
HMEAEVIKTASDMADRNGLHNVSLKAIAENLGIRTPSLYNHIGSLDELLREIAHSGMRTMNE	-0.0854
HMAESSPYTVRPGDTLWKILAQTQNARYNDFPYLYRKFRELNPNITDLNHIVSGQKIIVPHIPG	-0.331
HMGDLEEAVKDFSEAIRLNDSWAEAYANRAVVYAEQGDAAQSDQDAEKARLLGVDQNRLNEMLNAVNS	0.294
HMVLVLPGEMIHVQVIDEGKEMGQGVGYLDDGTMVVVENGLRHIGRAIDVQVTKVLQTNAGRMIFGQPIL	-1.71
HMVNDDTIAATEAEILALLADKHRHHITELNSIRRPYEQIDAALSSLINEEKIFQEDGMLFV	0.543
HMDTSADEVKQLIASFVEQEDKRKPLSDQKIVELLAEKEQKISRRTVAKYRDALNIPSSSKRKRF	0.469
HMRAAKSEDTRTRLIEGGMALFGQKGYNATGIKDITDAAGVPKGSFYNYFASKEDFGAEIIHSY	0.14
HMSRWHEFLNKSEDGMKELDEQNQKVLTLLILQRFYQTPFQAKEDEEFYREFFERLSSVNEILG	-0.468
HMSAEVMLRRLIDENDPSSENARYILAVMLERKKILAPVDVKNEKKSKMLFYEHQKTGEAFIVRDP	-0.0597
HMEFDIDAAIHAALEPQAVMRAWFGHEGREYPEDFGVVFFRGWESFTHQEKVEAVRDAKKVLDRAVR	-1.18
HMEQVPEAVGRRVRQARSDRGWTLDQLAERSEVSRRMIVNVEAGTSNASIATLLRLATALNVGLAELVA	-1.61
HMDADTVGQIRVVKQILDDGRLIVVDASGNPVLVRRSSALSLTAISQGDRIIVDPSVRLAIELLPNE	-0.637
HMDSVSAVRTTHLNSYVLLLEKDGMAAATISRYIASMKGFFEYLFREHMIEEDPAFTLKPPKV	0.009
HMYVVLYPGMARDEAVQVMNELQSRGIDYYEKNGNIYVPKTDENSLRMELANLGYPKTTNNYD	-0.0096
HMSENMSQDLAQWYRLQQALHPNLDAPELWATDLTSQQRTVRDQLIQQWAQEKRDSLWSEISGD	-0.0639
HMAQVRSTVERRENGTYTVELNLNDDVDNVMRLQLMVATKEMAEDLAQRFQKNPEQVYSQLVTALYG	-0.723
HMTPQVTVPDVTGQSFASAKQVLESLGLTVKQQGSTGENDKVIGQNPTSGNADKGATITLTTQDS	0.536

Sequence	soluble fraction (log2)
HMSYGKVQFVIDAKDAVLSIDGKETDYEKPVKLTYGSHTITVYSSDYDTWKRNLYVNSEKSTVVINLA	-3.13
HMAENTIPSVIGKTLSDATFLLESYGYERGGVSEEYSEMPKGVVIRQSPQAGSSADPGTKVNLVVSLGEEI	0.538
HMEAYLPVTVVSDGKILTGNLEKAGKNEKWLENVLSELKTDVKNTLLLTVDPKDGLIFYPKG	0.408
HMENLQLQQLVKGLPEKMQEIVILRFSQELTMREIADIVNLPMRTVQSQLRLALKILKKEMG	-0.682
HMDLKENQHILQISNKGVQMGNVLKDLIIQTLNITNGNQIKAAKLLAISRAKLRYRIEQLGINISGKNI	0.000197
HMRKDWTPGAFVEAFVNDTPATRSTILAKAVSAGLSRWAADNLLRTADNDGLMVRQGSGKRNEPFTYRRGP	-0.257
HMTMVVIMNADATQADIEGVISAIEEKGLEAKVMEGAHQKIVGVIGDKTKLAATPLDAMHGVETTVAIS	-0.244
HMDGLTEQQADDILAFISIKGTNAEVLAALENYAGRNETFDTGLSELKVVASNLAAFGMPEENFVVDL	0.283
HMNVYAGTMINVVGLQVEDAASRLRGLFYSVKIVEEESQEPDGKVLRQNIAEGTKDLEAWTLVELTVSKYV	-2.73
HMSDGHLIKVLEVLDGGEAFLGRTANGGTARFSLGQLADIRRGSVVFVSEDRWEVVPDSAWPEI	-1.1
HMFERISELLTDEELAVYKRGRNANASSVPKHADIADYRRATGVEALFGYLYIKGEIDRINQLFELA	-0.154
HMGRFPSLTPVVIDALTAQYREHPGWTVQLHVDNLRVVLAANQTPLPSYPTIRRYLLAQGMRRQTRP	-0.396
HMRMLTKRRQDLLLELLEERGSITVSEVKDMLDASESTIRRDITALDEEGKLVKVFGGAVAAR	-0.345
HMHELKIEKVAEAPNGAMRLLLSDGSEWVLGVKSWNRLNLSLEKILDVNVLRALEKESQYHLLRTKALEL	-1.39
HMKRITKKQLSQQLEQFFSSQPGKKLTLKDIFRALHLDTHPLKMLAMDIMEEMAWDDFITKKGENAYQLNT	-0.916
HMTDFDWSLFTQQLKRFNLFLSYDDREKLQTFQTLYGLNELDLAEYVAKASAGEKNGLNFNYLRQLINKEK	-1.46
HMKKMSFKEAFLKYVEIKDNPYNMESVKMLVSLQPLIVKAYSILGVDKVRRLNYVKTKIQDAIINGD	-2.7
HMNSQSGKGGVGYILETKYGLNLPPKMREAMGYAAKGVSDHLHKELHPDEIFDLFKKTFENVGQPYS	-0.271
HMTKRTEPSILQNFDTEIAELIAKNRGISIMDALRIFLASKTHEMLENDEMKLWYFSPLAVFDMWENE	0.318
HMNISLGALVTITDQKGRSHTVTLESGKQFFTNHGSINHDEIIKAGEGGVVASSSGMLYTIFTP	-0.924
HMGWEPTPVLVAARDISGGTVLDQDMLRVEAIPSRLVTPSIVRSDLLASVQDAKLLLPMKQGDLLNFNMLQ	-0.0591
HMKELLQEMIMDILRAIASPNIDIKRKTLDLVLDLITPRNIDNVTGMLKTEVVKSQSENTSDVG	-1.58
HMEIIMIVITKPSITDERIAEIVAVIERNGGVQAHVSKGTDRTVIGIIGKAEPTLAEHLRQMKGVENVIKI	-1.33
HMNSKKRQAILESLRSVTDHPTAEMIYNRLKPEYPDLSLGTVYRNLAMFLEEGQVISVGTVDGQERYDAR	-0.564
HMHLDIGQLVQRILADIQVGKLADGQRKLPAEPVLMERYQVTRYTLRQALKQLSNMGYTYQMHGIGTFVRQ	-1.79
HMSVTIENQINTYFQTRDKISRDELVALIKKDFANWTDNTINIYVSSLQKRGIIHSLSRGMYALGN	-4.25

Sequence	soluble fraction (log2)
HMSLDAAAVASKLIKRLSKSPGRRFALDDLAVDVGLPHEQGRPLVRSALELLVRTQQAVEGPPNVFRLFF	-2.51
HMRRVRRTRRLLQDGLLGLMQHKAVADISVKELAEAADVARATVYVHFKDPADVLHQLEQGLY	0.091
HMGTPKMPLSLYLSMVENLRSLKRFALVNQQVKDGFVFFNDVAGIKRLQELLNYHNTGEKPSE	-2
HMGNHRNMSAEEEAAILAPFKARAEAGELVEISEIAKAYQSAVDHPISRGQIYFVLHRHGWRKV	-1.2
HMNVEQQNQARENIKRLMEEQGLSQPKLSEKAGIAFGTLSRILRGKQDLTIQTAEKIADALGLSVYDLAE	0.31
HMSQSIGQEKALSIALADAGVQKENALGLEVKGEYDDGQLLYEVEFRAGGVEYEYEVRASDGRIVKAERD	0.0638
HMRDITAQSNASELYFEERDLEAFIEKLERLYPEIRYVNRLMIHSWGQQVVRFFDPDGNLIEVGTP	-0.146
HMKKVTMQDIANILNISRVTVWKVLNNQPGVSKQLRDQILLTAKETGYLKPGQEAEAYLEENNIYFEG	-0.272
HMGFSKGKRDLIRMIKLAIRELADDNGRAQIEDVITRLVQEGHSRDEIRLQIDMFLRQGEAMEPKQGIIKL	-1.08
HMANTVVMPNLLGKTMTEAKIELKELGIDITLKGSESSSKYSAGQIMEQNIAEGTKVEVGSSVEVTIAGS	-0.579
HMVDLLDETLIEFYAFANNLIKDLETNSEKYGGMSQFEKELIFNEQITQYQRKLKIDLQDEVG	-1.8
HMDNEIEQIVEDLNLTLSSLKYTKNQIESILPLIIKEIDDFKKKEKNISFENLLKLAMNHLDND	-0.38
HMLSKEFRFFTYLLESYAQHKNTTAGAVLKTLDEKGLTDFVYKMYDLYHVEAIENAYMDLDSLIATGKPA	-3.64
HMYNTDAMGVRIGELRRAKGLTQEAFAKTLGISAQAVSKWETGLGFPDISLLPMIAETLGTKIETLFGAE	-0.299
HMDKRYYYRILGLVGEPTRDQIEAAYETRIAKLRSSDYGDDPLYARRKISEVTMAYKVLTGS	-1.56
HMEKELVSDFASRISTARSSKGWNHAELGKRMAETVNVIKSAESGKPPTDSVVKKLERVLGITLMEV	-0.0517
HMTTAGTAIVQTGNSGKLNLREQAYANAGILGRYSNGTAVTVLQKGAAWSYVEVKGQKGYMMSKFLKFTS	-1.53
HMDPTVTFIVQVNGRVRDKITLSSDISENEAKNVALESPKITPHISGKSLSRVIFVPGKLINLVV	-1.06
HMGEKVIAVSGGFDPIHVGHLRMMQDAAQHGRLVVIVNSDEWLLKKKGYVFMPWEERAELIGAYDFVDE	-0.964
HMSREEFLTELRKALQGRVSQQTVNDNLRYYEEYILTESHKGKTEAEVIAELGNPRLLAKSIIDAENAT	0.0701
HMAAYRLIPLGNSNKDFETYQEAIQYMRDKLDESSKAFEEGKQNWVYSGRVYGVPWSDGRTTFTVDLVPKV	0.594
HMDSIGTQIRKLREEAEMPLRKLSALLDIDQSTLSKIERDERRANTQMIEQIAKIFKVNKEQLLVA	-0.77
HMRSIMAVSNYRHKKILEMVYQRKSVSADELAAEFGVSKITIRRDLDTLAMDKLLERTRGGAISISD	-3.14
HMNVNTHKTLILNSTFQPLSLATPQRALALLFSKKINVLKESDIKLRSVGQSVAIPKVAVLTYFVKA	-0.409
HMHLRYTYIYDNENRVTSKEASKWDSTQEAWVPYFKMNVSYVNNEVELSYARWNSKSNAYDSSIKKTI	-2.54
